Reference: patent publication US20220332795A1 (ARO BIOTHERAPEUTICS, published 2022)
Substitutions are numbered along the chain they refer to.

B1: SEQ ID NO 38 (designed binder, not shown: small tags and cut ends)
chain: MLPAPKNLVVSRVTEDSARLSWTAPDAAFDSFPILYLEHTVRSEAIVLTVPGSERSYDLTDLKPGTEYCVPIDGVKGGLRSRPLSAIFTT
notes: FN3 domain, hit of the apical domain panning
B2: SEQ ID NO 37 (designed binder, not shown: small tags and cut ends)
chain: MLPAPKNLVVSRVTEDSARLSWTTPDAAFDSFPIYYWEVTITGEAIYLSVPGSERSYDLTGLKPGTEYPVDIPGVKGGAASPPLSAIFTT
notes: as for B1
B3: SEQ ID NO 4 (designed binder, not shown: small tags and cut ends)
chain: MLPAPKNLVVSEVTEDSARLSWQGVARAFDSFLITYRDQIFAGEVIVLTVPGSERSYDLTGLKPGTEYPVWIQGVKGGSPSAPLSAESTT
notes: as for B1
B4: SEQ ID NO 81 (designed binder, not shown: small tags and cut ends)
chain: B3 chain with E12R, R37V, D38E, Q39L, I40R, F41H, A42L, V45A, S88F
notes: as for B1
B5: SEQ ID NO 28 (designed binder, not shown: small tags and cut ends)
chain: B3 chain with A26V, D38E, S88F
notes: as for B1
B6: SEQ ID NO 7 (designed binder, not shown: small tags and cut ends)
chain: B3 chain with E12D, D38E, S88F
notes: as for B1
B7: SEQ ID NO 5 (designed binder, not shown: small tags and cut ends)
chain: B3 chain with D38E, P69W, W71Y, Q73W, S79K, A82F, S85R, E87G, S88F
notes: as for B1
B8: SEQ ID NO 70 (designed binder, not shown: small tags and cut ends)
chain: B3 chain with E12R, D38E, S79D, P80L, A82N, E87I, S88F
notes: as for B1
B9: SEQ ID NO 41 (designed binder, not shown: small tags and cut ends)
chain: B3 chain with E12R, D38E, S79H, P80L, A82D, E87I, S88V
notes: as for B1
B10: SEQ ID NO 15 (designed binder, not shown: small tags and cut ends)
chain: B3 chain with E12R, D38E, Y68C, S88F
notes: as for B1
B11: SEQ ID NO 36 (designed binder, not shown: small tags and cut ends)
chain: B3 chain with D38E, L48P, W71P, Q73A, S79G, E87I, S88F
notes: as for B1
B12: SEQ ID NO 32 (designed binder, not shown: small tags and cut ends)
chain: B3 chain with E12R, D38E, P69G, W71T, Q73A, S79W, P80R, A82K, S85N
notes: as for B1
B13: SEQ ID NO 84 (designed binder, not shown: small tags and cut ends)
chain: MLPAPKNLVVSRVTEDSARLSWQGVARAFDSFSILYLELTPKGEAIVLTVPGSERSYDLTGLKPGTEYPVWIQGVKGGSPSAPLSAEFTT
notes: as for B1
B14: SEQ ID NO 53 (designed binder, not shown: small tags and cut ends)
chain: B3 chain with K6E, D38E
notes: as for B1
B15: SEQ ID NO 73 (designed binder, not shown: small tags and cut ends)
chain: B3 chain with D38E
notes: as for B1
B16: SEQ ID NO 94 (designed binder, not shown: small tags and cut ends)
chain: B3 chain with D38E, E87I, S88F
notes: as for B1
B17: SEQ ID NO 102 (designed binder, not shown: small tags and cut ends)
chain: B3 chain with E12R, D38E, S88F
notes: as for B1
B18: SEQ ID NO 39 (designed binder, not shown: small tags and cut ends)
chain: MLPAPKNLVVSRVTEDSARLSWTAPDAAFDSFPIPYTEPPDPGEAIVLTVPGSERSYDLTGLKPGTEYLVTILGVKGGSMSVPLSAIFTT
notes: as for B1
B19: SEQ ID NO 12 (designed binder, not shown: small tags and cut ends)
chain: MLPAPKNLVVSRVTEDSARLSWTAPDAAFDSFFIPYAEPSPTGEAIVLTVPGSERSYDLTGLKPGTEYSVLIHGVKGGHLSDPLSAISTT
notes: as for B1
B20: SEQ ID NO 42 (designed binder, not shown: small tags and cut ends)
chain: B19 chain with F33L, P39T, T42S, H79D, L80Y, D82E, S88F
notes: as for B1
B21: SEQ ID NO 68 (designed binder, not shown: small tags and cut ends)
chain: B19 chain with F33I, P39V, S40R, T42D
notes: as for B1
B22: SEQ ID NO 65 (designed binder, not shown: small tags and cut ends)
chain: B19 chain with E15K, F33P, P35A, S40R, T42D, H79L, D82S, S88F
notes: as for B1
B23: SEQ ID NO 77 (designed binder, not shown: small tags and cut ends)
chain: B19 chain with F33P, P35A, S40R, T42D, H79L, D82S, S88F
notes: as for B1
B24: SEQ ID NO 49 (designed binder, not shown: small tags and cut ends)
chain: B19 chain with F33P, P35A, S40R, T42D, H79D, L80W, D82L, S88F
notes: as for B1
B25: SEQ ID NO 64 (designed binder, not shown: small tags and cut ends)
chain: B19 chain with F33Y, P35V, S40I, T42N, H79R, L80N, S88F
notes: as for B1
B26: SEQ ID NO 83 (designed binder, not shown: small tags and cut ends)
chain: B19 chain with F33P, P35A, S40R, T42D, H79L, D82S
notes: as for B1
B27: SEQ ID NO 57 (designed binder, not shown: small tags and cut ends)
chain: B19 chain with F33A, P39L, P41R, T42N, S69T, H79C, S88F
notes: as for B1
B28: SEQ ID NO 82 (designed binder, not shown: small tags and cut ends)
chain: B19 chain with F33L, P39T, T42S, H79D, L80Y, D82S, S88F
notes: as for B1
B29: SEQ ID NO 44 (designed binder, not shown: small tags and cut ends)
chain: B19 chain with S88V
notes: as for B1
B30: SEQ ID NO 46 (designed binder, not shown: small tags and cut ends)
chain: B19 chain with F33I, P39V, S40R, T42D, H79K, D82L, S88F
notes: as for B1
B31: SEQ ID NO 40 (designed binder, not shown: small tags and cut ends)
chain: MLPAPKNLVVSRVTEDSARLSWTAPDAAFDSFTIDYWENRCPGEAIVLTVPGSERSYDLTGLKPGTEYCVWISGVKGGYSSWPLSAIFTT
notes: as for B1
B32: SEQ ID NO 1 (designed binder, not shown: small tags and cut ends)
chain: MLPAPKNLVVSRVTEDSARLSWTAPDAAFDSFPITYIEAVVLGEAIVLTVPGSERSYDLTGLKPGTEYPVGISGVKGGHNSMPLSAIFTT
notes: as for B1
B33: SEQ ID NO 192 (designed binder)
chain: MLPAPKNLVVSRVTEDSARLSWTAPDAAFDSFDIGYTEYGGYGEAIYLSVPGSERSYDLTGLKPGTEYWVLIQGVKGGGSSVPLSAIFTT
notes: FN3 domain
B34: SEQ ID NO 202 (designed binder)
chain: MLPAPKNLVVSRVTEDSARLSWTAPDAAFDSFDIGYTEYGGYGEAILHVPGSERSYDLTGLKPGTEYWVLIQGVKGGGSSVPLSAIFTT
notes: FN3 domain

Each binder was assayed against T1, recombinant biotinylated CD71 extracellular domain (Sino Biologics) with an N-terminal 6His tag (human, UniProt P02786 89-760, biotinylated (site not stated)) (assay: primary solution ELISA screen, signal on hCD71 over HSA).
T1 construct: extracellular domain; also called hCD71; huCD71 ECD
T1 sequence (P02786 other isoform, or with tags, fused parts or gaps): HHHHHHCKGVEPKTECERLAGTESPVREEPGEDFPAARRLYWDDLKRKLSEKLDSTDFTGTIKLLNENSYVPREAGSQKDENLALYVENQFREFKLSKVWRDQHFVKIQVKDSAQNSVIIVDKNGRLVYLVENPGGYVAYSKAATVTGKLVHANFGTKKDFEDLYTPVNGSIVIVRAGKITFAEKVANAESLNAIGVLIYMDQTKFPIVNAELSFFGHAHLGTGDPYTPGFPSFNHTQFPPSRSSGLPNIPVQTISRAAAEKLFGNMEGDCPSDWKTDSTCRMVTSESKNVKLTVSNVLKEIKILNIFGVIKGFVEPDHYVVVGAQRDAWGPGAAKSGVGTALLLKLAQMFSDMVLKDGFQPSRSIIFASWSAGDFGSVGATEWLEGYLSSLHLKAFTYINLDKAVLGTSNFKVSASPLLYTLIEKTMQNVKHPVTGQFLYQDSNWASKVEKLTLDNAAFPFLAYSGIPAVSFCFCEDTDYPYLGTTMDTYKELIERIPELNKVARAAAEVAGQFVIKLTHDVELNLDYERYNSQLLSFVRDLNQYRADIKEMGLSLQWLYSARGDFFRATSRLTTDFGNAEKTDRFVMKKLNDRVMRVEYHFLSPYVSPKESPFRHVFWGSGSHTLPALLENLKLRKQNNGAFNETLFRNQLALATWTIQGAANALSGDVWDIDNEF

hCD71:HSA	Binder
63	B1
103	B2
12	B3
88	B4
28	B5
29	B6
39	B7
10	B8
12	B9
35	B10
60	B11
75	B12
28	B13
40	B14
73	B15
12	B16

hCD71:HSA	Binder
11	B17
29	B18
25	B19
586	B20
14	B21
60	B22
71	B23
70	B24
218	B25
29	B26
29	B27
105	B28
13	B29
127	B30
16	B31
96	B32

The binders below were run against T2, recombinant biotinylated human CD71 extracellular domain (human, UniProt P02786 89-760, biotinylated) (assay: solution ELISA, signal ratio to HSA).
T2 construct: extracellular domain; also called hCD71; huCD71 ECD
T2 sequence (P02786 other isoform, or with tags, fused parts or gaps): as above

hCD71:HSA	Binder
79.9	B33
58.6	B34

Each binder was assayed against T3, CD71 apical domain (UniProt P02786 189-383, limits assumed) (assay: solution ELISA, signal ratio to HSA).
T3 construct: domain: Apical domain
T3 sequence (P02786 189-383 limits assumed): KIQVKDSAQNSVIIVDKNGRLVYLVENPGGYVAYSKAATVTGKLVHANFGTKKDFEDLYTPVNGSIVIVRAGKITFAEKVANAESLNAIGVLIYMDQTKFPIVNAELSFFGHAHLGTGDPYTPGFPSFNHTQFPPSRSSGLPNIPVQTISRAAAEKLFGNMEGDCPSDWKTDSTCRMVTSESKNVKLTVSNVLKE

apical domain:HSA	Binder
342	B33
212	B34

The binders below were run against T2, recombinant biotinylated human CD71 … (assay: solution ELISA).

hCD71, RLU [RLU]	Binder
1.77e+06	B33
1.51e+06	B34

These binders were tested against T3, CD71 apical domain (assay: solution ELISA).

Apical domain, RLU [RLU]	Binder
7.58e+06	B33
5.47e+06	B34

The binders below were run against T1, recombinant biotinylated CD71 … (assay: primary solution ELISA screen).

RLU [RLU]	Binder
518000	B1
2.95e+06	B2
2.1e+06	B3
864000	B4
383000	B5
761000	B6
1.73e+06	B7
991000	B8
1.37e+06	B9
512000	B10
288000	B11
342000	B12
3.53e+06	B13
1.27e+06	B14
1.47e+06	B15
1.02e+06	B16

RLU [RLU]	Binder
444000	B17
1.48e+06	B18
1.24e+06	B19
586000	B20
521000	B21
959000	B22
739000	B23
969000	B24
1.31e+06	B25
3.26e+06	B26
1.12e+06	B27
1.56e+06	B28
715000	B29
1.04e+06	B30
223000	B31
1.51e+06	B32
